Residue numbers refer to the chain shown, from its start. Numbers in names are those of the source.
Assays:
[1] = molecular target: Alexa647-conjugated rHuVEGF (Invitrogen Cat #PHG0143) (human, UniProt P15692-4 27-191, limits assumed, Alexa647-conjugated); experiment: flow cytometry, surface-bound antibody on 293c18 cells, 3 nM Alexa647-rHuVEGF; parameters: reference not given here
Description: Data were gathered by way of flow cytometry using a DakoCytomation CyAn ADP flow cytometer and was analyzed using Treestar's FloJo analysis program.

[2] = molecular target: T1, human VEGF-A residues 27-191 of Accession #AAV38412 (human, UniProt P15692 27-191); experiment: BIAcore SPR; kd of this row is at the detection limit
T1 construct: range 27-191
Description: (§1) The binding kinetics and affinity of the antibodies for VEGF (human VEGF-A residues 27-191 of Accession #AAV38412) was determined by using a BIAcore T200 surface plasmon resonance system (BIAcore, GE Healthcare, Piscataway, N.J.). Coupling running buffer was HBS-EP+ running buffer (10 mM HEPES, 150 mM sodium chloride, 3 mM EDTA 0.05% P-20, pH 7.4); assay running buffer was HBS-EP+ with 300 mM sodium chloride and 0.1 mg/mL BSA (Sigma A7906). Polyclonal goat anti-human Fc (Thermo Scientific prod#31125) was first immobilized to the biosensor surface in 10 mM sodium acetate, pH 4.5 using standard BIAcore amine coupling reagents (N-ethyl-N′-dimethylamino-propylcarbodiimide, EDC; N-hydroxysuccinimide, NHS; and ethanolamine HCl, pH 8.5). For binding kinetics assay a series of cycles were performed, each cycle consisted of 1) mAb capture, 2) Ag or buffer injection, 3) dissociation phase and 4) regeneration. Briefly, anti-VEGF antibodies were captured on parallel surfaces at a low flow rate of 10 μL/min. Capture levels were kept low to minimize avidity due to the dimeric nature of VEGF. No capture of the antibody was made on the reference surface to serve for primary referencing and as a negative control. […]

[3] = molecular target: T1, human VEGF-A residues 27-191 of …; experiment: BIAcore SPR; * detection limit
Description: as §1

[4] = molecular target: T1, human VEGF-A residues 27-191 of …; experiment: BIAcore SPR
[5] = molecular target: T2, unlabeled human VEGF (ELISA coat) (human, UniProt P15692-4 27-191, limits assumed); experiment: ELISA overnight, EC50 WT/EC50 mutant
[6] = molecular target: T1, human VEGF-A residues 27-191 of …; experiment: BIAcore SPR, KD WT/KD mutant
[7] = molecular target: T2, unlabeled human VEGF (ELISA coat); experiment: ELISA 1 hr, EC50 WT/EC50 mutant
[8] = molecular target: T3, VEGF (R&D systems, Minneapolis, Minn.) (UniProt P15692-4 27-191, limits assumed); experiment: SPR (BIAcore 2000/3000), antibody captured by anti-human Fc, VEGF as analyte, 1:1 Langmuir fit; variant corresponding to SEQ ID NO:82, the best of the variants
Description: (§2) RL was kept low to minimize avidity due to the dimeric nature of VEGF. No capture of the antibody was made on the reference surface to serve as a negative control. Subsequently, VEGF was injected to all flow cells at a flow rate of 50 μL/min for two minutes to monitor association followed by a 25-minute flow of HBS-P running buffer (10 mM HEPES, 150 mM sodium chloride, 0.005% P-20, pH 7.4) to monitor the dissociation phase. At each cycle, VEGF, in 6 different concentrations of VEGF ranging between 0 nM and 512 nM and at four-fold increments, was injected over the surface. […] Binding data were fit to the 1:1 Langmuir model to extract binding constants from the BIAevaluate software. Double referencing was applied in each analysis to eliminate background responses from the reference surface and buffer only control. All the binding kinetics data were analyzed at least three separate determinations.

[9] = molecular target: T3, VEGF (R&D systems, Minneapolis, Minn.); experiment: BIAcore SPR, improvement over WT
Description: as §2

[10] = molecular target: T3, VEGF (R&D systems, Minneapolis, Minn.); experiment: BIAcore SPR
Description: as §2

[11] = molecular target: T3, VEGF (R&D systems, Minneapolis, Minn.); experiment: BIAcore SPR, mutant/WT
Description: as §2

[12] = molecular target: T3, VEGF (R&D systems, Minneapolis, Minn.); experiment: BIAcore SPR, WT/mutant
Description: as §2

[13] = molecular target: T2, unlabeled human VEGF (ELISA coat); experiment: ELISA on coated human VEGF, overnight assay, against bevacizumab (WT)
Description: (§3) Corresponding variants in DVD-Ig format were analyzed for binding kinetics by BIAcore only.
(§4) To detect identified variants binding to antigen, ELISA plates (Nunc-Immuno MaxiSorp plates, Nalge Nunc, Rochester, N.Y.) were coated overnight at 4° C. with unlabeled human VEGF at 1 μg/mL in 0.2 M sodium carbonate-bicarbonate buffer (pH 9.4, Pierce, Rockford, Ill.). The plates were then blocked with SuperBlock Blocking Buffer (Pierce, Rockford, Ill.) for 30 min and washed with Washing Buffer (PBS containing 0.1% Tween 20). All the washing steps were performed for three times. […] The plates were washed and 100 μL of goat anti-human kappa HRP-conjugated antibody (Southern Biotech, Birmingham, Ala.) diluted at 1:1000 in ELISA buffer was added to each well. After 30 minutes of incubation, plates were washed and bound antibodies were detected by addition of TMB 1 Component HRP Microwell substrate (BioFx #TMBW-1000-01). The reaction was terminated by addition of 100 μL/well of 650 nM Stop Reagent for TMB Microwell substrate and the absorbance was measured at 650 nm using a VERSAmax microplate reader (Molecular Devices, Sunnyvale, Calif.). Data were fitted using nonlinear regression with the software […]

[14] = molecular target: T2, unlabeled human VEGF (ELISA coat); experiment: ELISA on coated human VEGF, 1 hr incubation, against bevacizumab (WT)
Description: as §3, §4

[15] = molecular target: T1, human VEGF-A residues 27-191 of …; experiment: BIAcore SPR, KD WT/KD mutant [continued]
Description: (§5) The binding kinetics and affinity of the antibodies for VEGF (human VEGF-A residues 27-191 of Accession #AAV38412) was determined by using a BIAcore T200 surface plasmon resonance system (BIAcore, GE Healthcare, Piscataway, N.J.). Coupling running buffer was HBS-EP+ running buffer (10 mM HEPES, 150 mM sodium chloride, 3 mM EDTA 0.05% P-20, pH 7.4); assay running buffer was HBS-EP+ with 300 mM sodium chloride and 0.1 mg/mL BSA (Sigma A7906). Polyclonal goat anti-human Fc (Thermo Scientific prod#31125) was first immobilized to the biosensor surface in 10 mM sodium acetate, pH 4.5 using standard BIAcore amine coupling reagents (N-ethyl-N′-dimethylamino-propylcarbodiimide, EDC; N-hydroxysuccinimide, NHS; and ethanolamine HCl, pH 8.5). For binding kinetics assay a series of cycles were performed, each cycle consisted of 1) mAb capture, 2) Ag or buffer injection, 3) dissociation phase and 4) regeneration. Briefly, anti-VEGF antibodies were captured on parallel surfaces at a low flow rate of 10 μL/min. Capture levels were kept low to minimize avidity due to the dimeric nature of VEGF. No capture of the antibody was made on the reference surface to serve for primary referencing and as a negative control. Subsequently, VEGF or buffer only was injected to all flow cells at a flow rate of 80 μL/min for three minutes to monitor association followed by a 20-minute flow of assay rinning buffer at a flow rate of 80 μL/min to monitor dissociation. […] At the end of each cycle the surface was regenerated with 10 mM glycine, pH 1.5 at a flow rate of 60 μL/min in pulses of 60 and 10 sec. Binding data were fit to the 1:1 Langmuir model with mass transport term included using Biacore T200 Evaluation Software to determine the binding constants.

[16] = molecular target: T1, human VEGF-A residues 27-191 of …; experiment: BIAcore SPR [continued]
Description: as §5

Chain of Alexa647-conjugated rHuVEGF (Invitrogen Cat #PHG0143) (P15692 other isoform, or with tags, fused parts or gaps limits assumed): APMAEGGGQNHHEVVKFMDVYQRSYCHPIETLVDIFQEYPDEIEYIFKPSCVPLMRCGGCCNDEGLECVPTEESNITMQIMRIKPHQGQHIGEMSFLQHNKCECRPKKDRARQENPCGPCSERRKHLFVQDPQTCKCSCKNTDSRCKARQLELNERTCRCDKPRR
T3 sequence (P15692 other isoform, or with tags, fused parts or gaps limits assumed): as above
T2 sequence (P15692 other isoform, or with tags, fused parts or gaps limits assumed): as above
T1 sequence (P15692 other isoform, or with tags, fused parts or gaps limits assumed): as above

B1: VL T51A (antibody, V domains shown)
VH: EVQLVESGGGLVQPGGSLRLSCAASGYTFTNYGMNWVRQAPGKGLEWVGWINTYTGEPTYAADFKRRFTFSLDTSKSTAYLQMNSLRAEDTAVYYCAKYPHYYGSSHWYFDVWGQGTLVTVSS
VL: DIQMTQSPSSLSASVGDRVTITCSASQDISNYLNWYQQKPGKAPKVLIYFASSLHSGVPSRFSGSGSGTDFTLTISSLQPEDFATYYCQQYSTVPWTFGQGTKVEIKR
MFI [1]: 296

B2: VH K64Q (antibody, V domains shown)
VH: B1 VH with K65Q
VL: DIQMTQSPSSLSASVGDRVTITCSASQDISNYLNWYQQKPGKAPKVLIYFTSSLHSGVPSRFSGSGSGTDFTLTISSLQPEDFATYYCQQYSTVPWTFGQGTKVEIK
notes: copies: 2 + 2
MFI [1]: 230

B3: VH H97E.Y98F (antibody, V domains shown)
VH: B1 VH with H101E, Y102F
VL: B2 VL
notes: copies: 2 + 2
MFI [1]: 310

B4: H97 F (anti-VEGF IgG) (antibody, V domains shown)
VH: B1 VH with H101F
VL: B2 VL
notes: copies: 2 + 2
Kd [2]: ≤ 0.17 nM
koff [3]: ≤ 1e-05 s⁻¹
kon [4]: 59000 M⁻¹ s⁻¹
ELISA o/n binding [5]: 2.3 fold
affinity improvement [6]: 2.5 fold
ELISA 1hr binding [7]: 2 fold

B5: VH Y53F.K64Q (antibody, V domains shown)
VH: B1 VH with Y54F, K65Q
VL: B2 VL
notes: copies: 2 + 2
MFI [1]: 217

B6: bevacizumab variant corresponding to SEQ ID NO:82 (antibody, V domains shown)
VH: B1 VH with N31F, H101D, Y103D, S105G
VL: B1 VL with A51T
Kd [8]: 0.08 nM
ΔKD [9]: 23.8 fold
Kd [10]: 0.0827 nM
koff [10]: 0.000172 s⁻¹
kon [10]: 2.08e+06 M⁻¹ s⁻¹
Δkon [11]: 11.6 fold
Δkoff [12]: 2 fold

B7: VH K64S (antibody, V domains shown)
VH: B1 VH with K65S
VL: B2 VL
notes: copies: 2 + 2
MFI [1]: 168

B8: bevacizumab variant H97Y (IgG format) (antibody, name in Kabat numbering, V domains shown)
VH: B1 VH with H101Y
VL: B1 VL with A51T
notes: IgG format; also called H97Y substitution
Kd [2]: ≤ 0.243 nM
koff [3]: ≤ 1e-05 s⁻¹
fold over WT (EC50 wild type/EC50 mutant), overnight assay [13]: 9.3 fold
fold over WT (EC50 wild type/EC50 mutant), 1-hour assay [14]: 2.6 fold
kon [4]: 41200 M⁻¹ s⁻¹
affinity improvement [6]: 1.8 fold

B9: S100a A (SS DLL4-VEGF DVD-Ig) (bispecific antibody)
VH: EVQLVESGGGLVQPGGSLRLSCAASGFTFSNFPMAWVRQAPGKGLEWVATISSSDGTTYYRDSVKGRFTISRDNAKNSLYLQMNSLRAEDTAVYYCARGYYNSPFAYWGQGTLVTVSSASTKGPEVQLVESGGGLVQPGGSLRLSCAASGYTFTNYGMNWVRQAPGKGLEWVGWINTYTGEPTYAADFKRRFTFSLDTSKSTAYLQMNSLRAEDTAVYYCAKYPHYYGASHWYFDVWGQGTLVTVSS
VL: DIQMTQSPSSLSASVGDRVTITCRASEDIYSNLAWYQQKPGKAPKLLIYDTNNLADGVPSRFSGSGSGTDFTLTISSLQPEDFATYYCQQYNNYPPTFGQGTKLEIKRTVAAPDIQMTQSPSSLSASVGDRVTITCSASQDISNYLNWYQQKPGKAPKVLIYFTSSLHSGVPSRFSGSGSGTDFTLTISSLQPEDFATYYCQQYSTVPWTFGQGTKVEIK
notes: also called SS DLL4-VEGF DVD-Ig variant S100aA
affinity improvement [15]: 0.8 fold
Kd [16]: 11 nM
koff [16]: 0.000124 s⁻¹
kon [16]: 11700 M⁻¹ s⁻¹

B10: S100a T (SS DLL4-VEGF DVD-Ig) (bispecific antibody)
VH: B9 VH with A229T
VL: B9 VL
notes: also called SS DLL4-VEGF DVD-Ig variant S100aT
affinity improvement [15]: 1.2 fold
Kd [16]: 7.6 nM
koff [16]: 7.33e-05 s⁻¹
kon [16]: 9630 M⁻¹ s⁻¹

B11: T30 W (SS DLL4-VEGF DVD-Ig) (bispecific antibody)
VH: B9 VH with T154W, A229S
VL: B9 VL
notes: also called SS DLL4-VEGF DVD-Ig variant T30W
affinity improvement [15]: 0.8 fold
Kd [16]: 16 nM
koff [16]: 0.000143 s⁻¹
kon [16]: 9120 M⁻¹ s⁻¹

From US20140154255A1 (AbbVie / Abbott, published 2014)
